Measured values published in patent publication US20190153112A1 (IMMUTEP S A S, published 2019).

Columns and labels:
[1] = molecular target: IMP321 (recombinant soluble human LAG-3Ig fusion protein) (human) (UniProt P18627); test: cell-based or functional assay
[2] = molecular target: human LAG-3 protein (Lymphocyte activation gene-3) on the cell surface (human) (UniProt P18627); test: flow cytometry on LAG-3-transfected CHO cells; antibody 500 ng/ml
[3] = molecular target: human LAG-3 protein (Lymphocyte activation gene-3) on the cell surface (human) (UniProt P18627); test: flow cytometry on LAG-3-transfected CHO cells; antibody 2000 ng/ml
[4] = molecular target: human LAG-3 protein (Lymphocyte activation gene-3) on the cell surface (human) (UniProt P18627); test: flow cytometry on LAG-3-transfected CHO cells; antibody 10000 ng/ml
[5] = molecular target: human LAG-3 protein (Lymphocyte activation gene-3) on the cell surface (human) (UniProt P18627); test: flow cytometry on CD4+ cells of SEB-stimulated PBMCs (Donor 1); antibody 7 ng/ml
[6] = molecular target: human LAG-3 protein (Lymphocyte activation gene-3) on the cell surface (human) (UniProt P18627); test: flow cytometry on CD8+ cells of SEB-stimulated PBMCs (Donor 1); antibody 7 ng/ml
[7] = molecular target: human LAG-3 protein (Lymphocyte activation gene-3) on the cell surface (human) (UniProt P18627); test: flow cytometry on CD4+ cells of SEB-stimulated PBMCs (Donor 1); antibody 29 ng/ml
[8] = molecular target: human LAG-3 protein (Lymphocyte activation gene-3) on the cell surface (human) (UniProt P18627); test: flow cytometry on CD8+ cells of SEB-stimulated PBMCs (Donor 1); antibody 29 ng/ml
[9] = molecular target: human LAG-3 protein (Lymphocyte activation gene-3) on the cell surface (human) (UniProt P18627); test: flow cytometry on CD4+ cells of SEB-stimulated PBMCs (Donor 1); antibody 0.4 ng/ml
[10] = molecular target: human LAG-3 protein (Lymphocyte activation gene-3) on the cell surface (human) (UniProt P18627); test: flow cytometry on CD4+ cells of SEB-stimulated PBMCs (Donor 1); antibody 1.6 ng/ml
[11] = molecular target: human LAG-3 protein (Lymphocyte activation gene-3) on the cell surface (human) (UniProt P18627); test: flow cytometry on CD4+ cells of SEB-stimulated PBMCs (Donor 1); antibody 126 ng/ml
[12] = molecular target: human LAG-3 protein (Lymphocyte activation gene-3) on the cell surface (human) (UniProt P18627); test: flow cytometry on CD4+ cells of SEB-stimulated PBMCs (Donor 1); antibody 541 ng/ml
[13] = molecular target: human LAG-3 protein (Lymphocyte activation gene-3) on the cell surface (human) (UniProt P18627); test: flow cytometry on CD8+ cells of SEB-stimulated PBMCs (Donor 1); antibody 0.4 ng/ml
[14] = molecular target: human LAG-3 protein (Lymphocyte activation gene-3) on the cell surface (human) (UniProt P18627); test: flow cytometry on CD8+ cells of SEB-stimulated PBMCs (Donor 1); antibody 1.6 ng/ml
[15] = molecular target: human LAG-3 protein (Lymphocyte activation gene-3) on the cell surface (human) (UniProt P18627); test: flow cytometry on CD8+ cells of SEB-stimulated PBMCs (Donor 1); antibody 126 ng/ml
[16] = molecular target: human LAG-3 protein (Lymphocyte activation gene-3) on the cell surface (human) (UniProt P18627); test: flow cytometry on CD8+ cells of SEB-stimulated PBMCs (Donor 1); antibody 541 ng/ml
[17] = molecular target: human LAG-3 protein (Lymphocyte activation gene-3) on the cell surface (human) (UniProt P18627); test: flow cytometry on CD4+ cells of SEB-stimulated PBMCs (Donor 1); antibody 2326 ng/ml
[18] = molecular target: human LAG-3 protein (Lymphocyte activation gene-3) on the cell surface (human) (UniProt P18627); test: flow cytometry on CD8+ cells of SEB-stimulated PBMCs (Donor 1); antibody 2326 ng/ml
[19] = molecular target: human LAG-3 protein (Lymphocyte activation gene-3) on the cell surface (human) (UniProt P18627); test: flow cytometry on CD4+ cells of SEB-stimulated PBMCs (Donor 1); antibody 10000 ng/ml
[20] = molecular target: human LAG-3 protein (Lymphocyte activation gene-3) on the cell surface (human) (UniProt P18627); test: flow cytometry on CD8+ cells of SEB-stimulated PBMCs (Donor 1); antibody 10000 ng/ml
[21] = molecular target: human LAG-3 protein (Lymphocyte activation gene-3) on the cell surface (human) (UniProt P18627); test: flow cytometry on LAG-3-transfected CHO cells; antibody 0 ng/ml (no-antibody background)
[22] = molecular target: human LAG-3 protein (Lymphocyte activation gene-3) on the cell surface (human) (UniProt P18627); test: flow cytometry on CD4+ cells of SEB-stimulated PBMCs (Donor 1); antibody 0 ng/ml (no-antibody background)
[23] = molecular target: human LAG-3 protein (Lymphocyte activation gene-3) on the cell surface (human) (UniProt P18627); test: flow cytometry on CD8+ cells of SEB-stimulated PBMCs (Donor 1); antibody 0 ng/ml (no-antibody background)
[24] = molecular target: IMP321 (recombinant soluble human LAG-3Ig fusion protein) (human) (UniProt P18627); test: FACS, LAG-3Ig-Alexa 488 (1 µg/ml) pre-incubated with antibody 27 ng/ml, then bound to Raji (MHC class II+) cells
[25] = molecular target: IMP321 (recombinant soluble human LAG-3Ig fusion protein) (human) (UniProt P18627); test: FACS, LAG-3Ig-Alexa 488 (1 µg/ml) pre-incubated with antibody 89 ng/ml, then bound to Raji (MHC class II+) cells
[26] = molecular target: IMP321 (recombinant soluble human LAG-3Ig fusion protein) (human) (UniProt P18627); test: FACS, LAG-3Ig-Alexa 488 (1 µg/ml) with antibody 0 ng/ml (no-antibody value), bound to Raji (MHC class II+) cells
[27] = molecular target: IMP321 (recombinant soluble human LAG-3Ig fusion protein) (human) (UniProt P18627); test: FACS, LAG-3Ig-Alexa 488 (1 µg/ml) pre-incubated with antibody 297 ng/ml, then bound to Raji (MHC class II+) cells
[28] = molecular target: IMP321 (recombinant soluble human LAG-3Ig fusion protein) (human) (UniProt P18627); test: FACS, LAG-3Ig-Alexa 488 (1 µg/ml) pre-incubated with antibody 990 ng/ml, then bound to Raji (MHC class II+) cells
[29] = molecular target: IMP321 (recombinant soluble human LAG-3Ig fusion protein) (human) (UniProt P18627); test: FACS, LAG-3Ig-Alexa 488 (1 µg/ml) pre-incubated with antibody 3300 ng/ml, then bound to Raji (MHC class II+) cells
[30] = molecular target: IMP321 (recombinant soluble human LAG-3Ig fusion protein) (human) (UniProt P18627); test: FACS, LAG-3Ig-Alexa 488 (1 µg/ml) pre-incubated with antibody 11000 ng/ml, then bound to Raji (MHC class II+) cells
[31] = molecular target: T1, IMP321 (recombinant soluble human LAG-3Ig fusion protein) (human, UniProt P18627 23-450); test: Biacore T200 SPR, antibody immobilized on C1 chip, IMP321 0.078-2.5 nM as analyte, 25 °C, 1:1 fit, average of three runs
T1 construct: extracellular domain; also called sLAG-3Ig; LC1
T1 sequence (looked up): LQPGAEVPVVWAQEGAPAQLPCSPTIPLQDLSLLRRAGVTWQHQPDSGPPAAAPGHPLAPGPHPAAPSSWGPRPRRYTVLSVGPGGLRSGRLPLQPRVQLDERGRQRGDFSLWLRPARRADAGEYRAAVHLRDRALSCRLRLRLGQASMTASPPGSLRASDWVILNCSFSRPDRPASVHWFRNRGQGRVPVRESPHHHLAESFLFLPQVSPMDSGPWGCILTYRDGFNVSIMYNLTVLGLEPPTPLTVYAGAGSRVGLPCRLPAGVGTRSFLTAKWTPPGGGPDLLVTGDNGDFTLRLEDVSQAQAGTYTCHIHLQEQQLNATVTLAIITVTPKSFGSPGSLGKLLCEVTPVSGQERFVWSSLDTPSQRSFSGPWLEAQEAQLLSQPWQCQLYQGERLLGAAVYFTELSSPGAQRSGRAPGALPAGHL
Procedure: A Biacore™ surface plasmon resonance analysis was performed using the chimeric antibody Chim13E2IgG4 (comprising the chimeric heavy chain 13E2IgG4mut, and the chimeric light chain 13E2IgK, described in Example 17), or the humanized 13E2 antibody (IMP761) described in Example 18, covalently immobilized to a C1 sensor chip. The coating was performed in 10 mM sodium acetate, pH 5.0, to reach 13±1 RU. The recombinant human LAG-3Ig protein (IMP321) was then passed over the captured antibodies at 6 different concentrations, ranging from 0.078-2.5 nM, in analysis buffer (10 mM HEPES pH 7.4, 150 mM NaCl, 3 mM EDTA, 0.05% Tween 20) at 25° C., with regeneration in every cycle. The analysis was carried out on Biacore™ T200 and the data was fitted using the kinetic global fit (Langmuir 1:1) model. The kinetics parameters are recorded in Table 29, and represent the average of three runs.

Sequence of human LAG-3 protein (Lymphocyte activation gene-3) on the cell surface (human) (P18627 other isoform, or with tags, fused parts or gaps): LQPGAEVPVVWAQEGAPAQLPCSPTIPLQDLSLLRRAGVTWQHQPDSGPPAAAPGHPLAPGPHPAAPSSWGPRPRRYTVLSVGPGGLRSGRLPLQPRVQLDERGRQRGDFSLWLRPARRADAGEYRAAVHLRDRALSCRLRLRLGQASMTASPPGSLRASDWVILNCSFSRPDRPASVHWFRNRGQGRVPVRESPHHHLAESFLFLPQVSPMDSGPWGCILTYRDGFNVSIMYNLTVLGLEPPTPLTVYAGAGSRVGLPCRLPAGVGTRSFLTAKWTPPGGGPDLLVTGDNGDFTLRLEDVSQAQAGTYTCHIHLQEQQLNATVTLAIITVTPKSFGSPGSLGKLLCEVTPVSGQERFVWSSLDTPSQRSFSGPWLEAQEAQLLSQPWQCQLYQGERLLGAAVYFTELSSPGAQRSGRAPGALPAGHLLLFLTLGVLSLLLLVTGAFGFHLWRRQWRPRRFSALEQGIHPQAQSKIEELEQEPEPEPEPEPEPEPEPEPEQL

Molecule: isotype control antibody (mIgG1)
- [CCL4] in THP-1 monocytic cells supernatant; IMP321 20 ng/ml pre-incubated with antibody 2 ng/ml [1]: 2050 pg/mL
- [CCL4] in THP-1 monocytic cells supernatant; IMP321 20 ng/ml pre-incubated with antibody 20 ng/ml [1]: 2140 pg/mL
- [CCL4] in THP-1 monocytic cells supernatant; IMP321 20 ng/ml pre-incubated with antibody 200 ng/ml [1]: 2220 pg/mL
- [CCL4] in THP-1 monocytic cells supernatant; IMP321 20 ng/ml pre-incubated with antibody 2000 ng/ml [1]: 2260 pg/mL
- [CCL4] in THP-1 monocytic cells supernatant; IMP321 20 ng/ml pre-incubated with antibody 20000 ng/ml [1]: 2900 pg/mL
- [CCL4] in THP-1 monocytic cells supernatant; IMP321 20 ng/ml, antibody 0 ng/ml (no-antibody value) [1]: 2110 pg/mL
- MFI [2]: 168 MFI
- MFI [3]: 251 MFI
- MFI [4]: 440 MFI
- MFI [5]: 110 MFI
- MFI [6]: 114 MFI
- MFI [7]: 108 MFI
- MFI [8]: 110 MFI
- MFI [9]: 106 MFI
- MFI [10]: 127 MFI
- MFI [11]: 109 MFI
- MFI [12]: 116 MFI
- MFI [13]: 112 MFI
- MFI [14]: 116 MFI
- MFI [15]: 115 MFI
- MFI [16]: 120 MFI
- MFI [17]: 113 MFI
- MFI [18]: 137 MFI
- MFI [19]: 116 MFI
- MFI [20]: 140 MFI
- MFI [21]: 156 MFI
- MFI [22]: 106 MFI
- MFI [23]: 112 MFI
- MFI of sLAG-3Ig-Alexa 488 [24]: 254 MFI
- MFI of sLAG-3Ig-Alexa 488 [25]: 324 MFI
- MFI of sLAG-3Ig-Alexa 488 [26]: 284 MFI
- MFI of sLAG-3Ig-Alexa 488 [27]: 373 MFI
- MFI of sLAG-3Ig-Alexa 488 [28]: 361 MFI
- MFI of sLAG-3Ig-Alexa 488 [29]: 359 MFI
- MFI of sLAG-3Ig-Alexa 488 [30]: 328 MFI

B1: chimeric 13E2-human IgG4 antibody Chim13E2IgG4 (antibody, V domains shown)
VH: QVTLKESGPGILQPSQTLSLTCSFSGFSLSTSGMGLGWIRQPSGKGLEWLTHIWWDDIKRYNPDLRSRLTISKDTSSSQIFLKIASVDTADTATYYCARIVEGSYSSSYFDVWGAGTTVTVSS
VL: DIVMTQPHKFMSTSVEDRVTITCKASQDVIFDVAWYQQKPGQSPKLLIYSASSRVSGVPDRFTGSGSGTDFTFTISSVQAEDLAVYYCQQHYSTPYTFGGGTTLEIKR
notes: The light chain is the 13E2 VL with wild-type human kappa; also called chimeric 13E2 IgG4; heavy chain 13E2IgG4mut
- Kd [31]: 0.0219 nM
- koff [31]: 0.00064 s⁻¹
- kon [31]: 2.9e+07 M⁻¹ s⁻¹

B2: humanized 13E2 monoclonal antibody IMP761 (antibody, human IgG4 S228P, kappa, V domains shown)
VH: QITLKESGPTLVKPTQTLTLTCTFSGFSLSTSGMGLGWIRQPPGKTLEWLTHIWWDDIKRYNPDLRSRLSITKDTSKNQVVLTMTNMDPLDTGTYYCARIVEGSYSSSYFDVWGQGTLVTVSS
VL: DIVMTQTPSSLSASVGDRVTITCKASQDVIFDVAWYQQRPGQAPKLLIYSASSRVSGVPSRFSGSGSGTDFTLTISSLQPEDFATYYCQQHYSTPYTFGQGTRLDIKR
notes: Human IgG4 (S228P) with kappa light chain; also called humanized 13E2 IgG4; VH4/VL3
- Kd [31]: 0.0228 nM
- koff [31]: 0.00066 s⁻¹
- kon [31]: 2.9e+07 M⁻¹ s⁻¹
